Drawing on paper PMC9736779, this text covers Kd for 2 sequences.

The data set deals with nucleolin (NCL) (Homo sapiens) (UniProt P19338). Briefly: SPR. As to conditions: SPR (Biacore X-100, CM5): 10 mM HEPES, 70 mM KCl, pH 7.4, 25 C, analyte 5-500 uM, two-state reaction fit. For orientation: Surface plasmon resonance follows binding to a sensor surface in real time, without labels.
nucleolin (NCL) (Homo sapiens), sequence (P19338 whole entry): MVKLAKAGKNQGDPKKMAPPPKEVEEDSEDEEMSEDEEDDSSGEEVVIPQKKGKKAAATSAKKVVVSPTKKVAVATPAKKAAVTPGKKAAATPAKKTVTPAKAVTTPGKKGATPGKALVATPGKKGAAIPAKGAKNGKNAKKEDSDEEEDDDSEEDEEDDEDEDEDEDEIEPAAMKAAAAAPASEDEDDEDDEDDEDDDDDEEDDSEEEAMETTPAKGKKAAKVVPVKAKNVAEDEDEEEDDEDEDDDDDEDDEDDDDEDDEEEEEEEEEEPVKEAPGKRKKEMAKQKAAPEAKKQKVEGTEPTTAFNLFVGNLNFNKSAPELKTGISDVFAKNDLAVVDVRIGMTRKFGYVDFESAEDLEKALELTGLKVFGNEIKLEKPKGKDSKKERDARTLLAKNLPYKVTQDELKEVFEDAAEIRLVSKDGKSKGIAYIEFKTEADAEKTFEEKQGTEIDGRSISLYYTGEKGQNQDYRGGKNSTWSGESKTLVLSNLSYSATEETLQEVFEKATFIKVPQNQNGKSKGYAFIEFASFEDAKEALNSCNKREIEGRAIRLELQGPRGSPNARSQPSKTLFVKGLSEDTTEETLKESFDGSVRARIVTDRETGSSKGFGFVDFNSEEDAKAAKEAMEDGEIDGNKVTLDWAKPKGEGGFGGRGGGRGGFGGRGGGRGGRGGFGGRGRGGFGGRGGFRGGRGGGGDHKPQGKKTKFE

Consider GGGGNNGGGGTGTGGGGTTGGGG [TBAG41S], for which the Kd (as a rule, a measure of binding affinity in units of concentration) (N at 5,6 = abasic site mimic (dSpacer, 1',2'-dideoxyribose)) came out at 41.5 µM.
Consider GGGGTTGGGGNNNGGGGTTGGGG [TBAG4GS], for which, under “N at 11-13 = abasic site mimic (dSpacer, 1',2'-dideoxyribose)”, the dissociation constant Kd stood at 32.2 µM.
